Assay results from patent US7816334B2, “Materials and methods relating to immune responses to fusion proteins” (Cancer Research Technology Limited, priority 2000, dated 2010).

Biological target: T1, H2-K^b (Mus musculus, UniProt P01901)
T1 sequence (P01901 22-369): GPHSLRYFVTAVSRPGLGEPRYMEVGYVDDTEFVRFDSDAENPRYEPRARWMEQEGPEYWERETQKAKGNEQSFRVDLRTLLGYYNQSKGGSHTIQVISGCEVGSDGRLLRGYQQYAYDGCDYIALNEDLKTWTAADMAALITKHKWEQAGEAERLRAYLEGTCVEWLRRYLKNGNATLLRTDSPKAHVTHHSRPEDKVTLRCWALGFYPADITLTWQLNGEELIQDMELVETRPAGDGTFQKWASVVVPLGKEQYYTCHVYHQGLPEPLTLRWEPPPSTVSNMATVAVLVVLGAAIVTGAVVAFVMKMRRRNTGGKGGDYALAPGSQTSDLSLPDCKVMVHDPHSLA
T1 sequence (P01887 21-119 partner): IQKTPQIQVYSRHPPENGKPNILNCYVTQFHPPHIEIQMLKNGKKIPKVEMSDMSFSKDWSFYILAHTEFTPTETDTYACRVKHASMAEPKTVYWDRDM
Assay: Peptide binding assay (assembly/stabilization assay in RMA-S cell lysate)
Settings: in vitro binding assay, compared with positive control peptide SEV
Procedure: Binding of each peptide to H2-K^b was performed using the assembly assay as described (29). This assay is based on the observation that, in a detergent lysate of RMA-S cells, K^b molecules are unstable and dissociate after an overnight incubation at 4° C. unless a stabilising (K^b-binding) peptide is added at the time of lysis. Only stabilised K^b molecules can therefore be recovered by immunoprecipitation with mAb Y3 after overnight incubation. The amount of recovered K^b is directly proportional to the amount of peptide bound, and the concentration of peptide required to effect 50% maximal recovery represents an approximate binding affinity (29). Recovery of H2-K^b heavy chains (HC) was quantitated after immunoprecipitation and SDS PAGE using AIDA (Fuji).

Sequence | binding to H2-K^b
LNIYYRRL [peptide 2] | comparable to the positive control
SNWYFNHL [peptide 1] | comparable to the positive control
